# According to article PMC12817079:
# Changes are numbered by the printed parent chain.
# T1: SOG1NAC (WT NAC domain) (Arabidopsis thaliana, UniProt Q6NQK2 58-211)
# T1 sequence: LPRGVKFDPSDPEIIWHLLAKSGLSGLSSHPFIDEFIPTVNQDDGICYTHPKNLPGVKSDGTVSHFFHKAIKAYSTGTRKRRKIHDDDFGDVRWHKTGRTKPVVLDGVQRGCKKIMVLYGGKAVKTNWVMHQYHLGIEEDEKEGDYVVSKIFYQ
# T2: SOG1NAC-DNAstrand (Arabidopsis thaliana, UniProt Q6NQK2 58-211, R150S;H152S;T154A;R156S;T157S)
# T2 sequence: T1 sequence with R93S, H95S, T97A, R99S, T100S
# T3: SOG1NAC-RKRR (Arabidopsis thaliana, UniProt Q6NQK2 58-211, R136A;K137A;R138A;R139A)
# T3 sequence: T1 sequence with R79A, K80A, R81A, R82A
# B1: Designed oligo 2 (one pBRCA1 site) (dsDNA)
# DNA 1: TCTGTAAAGCTTTCAAGGGAAGCCTCTTTGACGTAACAGAAACCCCGGAGTAAGCTCCCGTGGGGTCGGCGATGGTGGTAACTAATTATGTTCCT
# DNA 2: AGGAACATAATTAGTTACCACCATCGCCGACCCCACGGGAGCTTACTCCGGGGTTTCTGTTACGTCAAAGAGGCTTCCCTTGAAAGCTTTACAGA
# B2: pSMR5 97 bp (dsDNA)
# DNA 1: TACCTAGCAACTTCCAGAACAAGCTACGGTCACTTCCAAAACTAGTGTAATAAAGAAGCAATCTAATTAAGAACCTTATTAGGAAAGTGCGAGAGAG
# DNA 2: CTCTCTCGCACTTTCCTAATAAGGTTCTTAATTAGATTGCTTCTTTATTACACTAGTTTTGGAAGTGACCGTAGCTTGTTCTGGAAGTTGCTAGGTA
# B3: pSMR5 site 3 (dsDNA)
# DNA 1: ATTAAGAACCTTATTAGGAAAGTGCGAGAGA
# DNA 2: TCTCTCGCACTTTCCTAATAAGGTTCTTAAT
# B4: pTKa1 31 bp (dsDNA)
# DNA 1: TGACAAATCTTCTCCAGCAATTTTCTTCCTT
# DNA 2: AAGGAAGAAAATTGCTGGAGAAGATTTGTCA
# B5: pSMR5 site 2 (RC) (dsDNA)
# DNA 1: TTAGATTGCTTCTTTATTACACTAGTTTTGG
# DNA 2: CCAAAACTAGTGTAATAAAGAAGCAATCTAA
# B6: Designed oligo 1 (two pBRCA1 sites) (dsDNA)
# DNA 1: TCTGTAAAGCTTTCAAGGGAAGCCTCTTTGACGTAACAGAAACCCCGGAGTAAGCTCCCGTGGGTCTGTAAAGCTTTCAAGGGAAGCCTCTTTGA
# DNA 2: TCAAAGAGGCTTCCCTTGAAAGCTTTACAGACCCACGGGAGCTTACTCCGGGGTTTCTGTTACGTCAAAGAGGCTTCCCTTGAAAGCTTTACAGA
# B7: pXRI1 31 bp (dsDNA)
# DNA 1: ATAAAAAGCTTCTCTTGCAATTCTCTCTTCC
# DNA 2: GGAAGAGAGAATTGCAAGAGAAGCTTTTTAT
# B8: pBRCA1 31 bp (dsDNA)
# DNA 1: TCAAAGAGGCTTCCCTTGAAAGCTTTACAGA
# DNA 2: TCTGTAAAGCTTTCAAGGGAAGCCTCTTTGA
# B9: non-target 31 bp (random) (dsDNA)
# DNA 1: GTCGGCGATGGTGGTAACTAATTATGTTCCT
# DNA 2: AGGAACATAATTAGTTACCACCATCGCCGAC
# B10: pSMR5 site 1 (RC) (dsDNA)
# DNA 1: TGACCGTAGCTTGTTCTGGAAGTTGCTAGGT
# DNA 2: ACCTAGCAACTTCCAGAACAAGCTACGGTCA
# B11: pBRCA1 49 bp (dsDNA)
# DNA 1: GCGTGTCCTTCAAAGAGGCTTCCCTTGAAAGCTTTACAGACTAAATAAA
# DNA 2: TTTATTTAGTCTGTAAAGCTTTCAAGGGAAGCCTCTTTGAAGGACACGC
# How the values were obtained:
# SOG1NAC (WT NAC domain) [1] = target: T1, SOG1NAC (WT NAC domain); experiment: EMSA
# SOG1NAC (WT NAC domain) [2] = target: T1, SOG1NAC (WT NAC domain); experiment: EMSA; remark: listed apart in the source
# SOG1NAC (WT NAC domain) [3] = target: T1, SOG1NAC (WT NAC domain); experiment: EMSA; remark: listed apart in the source
# SOG1NAC (WT NAC domain) [4] = target: T1, SOG1NAC (WT NAC domain); experiment: EMSA; remark: listed apart in the source
# SOG1NAC (WT NAC domain) [5] = target: T1, SOG1NAC (WT NAC domain); experiment: EMSA; remark: listed apart in the source
# SOG1NAC (WT NAC domain) [6] = target: T1, SOG1NAC (WT NAC domain); experiment: EMSA; remark: listed apart in the source
# SOG1NAC-DNAstrand = target: T2, SOG1NAC-DNAstrand; experiment: EMSA
# SOG1NAC-RKRR = target: T3, SOG1NAC-RKRR; experiment: EMSA
# SOG1NAC (WT NAC domain) [7] = target: T1, SOG1NAC (WT NAC domain); experiment: ITC
# SOG1NAC (WT NAC domain) [8] = target: T1, SOG1NAC (WT NAC domain); experiment: ITC; remark: listed apart in the source
binder,measurement,setting,value
B1,binding result,SOG1NAC (WT NAC domain) [1],binds
B2,binding result,SOG1NAC (WT NAC domain) [2],binds
B3,binding result,SOG1NAC (WT NAC domain) [3],no binding
B4,binding result,SOG1NAC (WT NAC domain) [4],binds
B5,binding result,SOG1NAC (WT NAC domain) [5],binds
B6,binding result,SOG1NAC (WT NAC domain) [6],binds
B7,binding result,SOG1NAC (WT NAC domain) [4],binds
B8,binding result,SOG1NAC-DNAstrand,no binding
same,binding result,SOG1NAC-RKRR,no binding
same,Kd,SOG1NAC (WT NAC domain) [7],139 nM
B9,binding result,SOG1NAC (WT NAC domain) [8],no binding
B10,binding result,SOG1NAC (WT NAC domain) [5],binds
B11,binding result,SOG1NAC (WT NAC domain) [5],binds
